# Where two headings read alike, the source gives them in different places. Positions of bridges follow the written chain, without caps; N, C: chain ends. Residues, ends and D or L forms follow the SMILES beside them. *: point of attachment. X1 = O=C(O)c1ccc(-c2c3nc(c(-c4ccc(C(=O)O)cc4)c4ccc([nH]4)c(-c4ccc(C(=O)*)cc4)c4nc(c(-c5ccc(C(=O)O)cc5)c5ccc2[nH]5)C=C4)C=C3)cc1; X2 = O=C(O)C/C(=C/C(=O)*)C(=O)O
# Protocol: The main organs (heart, liver, spleen, lung, kidney and intestine) of healthly BALB/c nude mice (~8 weeks old, 18 g) were collected under euthanasia after treatment with PBS and Gi-F-CAA (8, 12 and 16 mg/kg in 100 μL PBS) for 1 day. Afterwards, the histology evaluation by Hematoxylin and Eosin (H&E) Staining was carried out by Servicebio Technology Co., Ltd. (Wuhan, China). Meanwhile, the whole blood and serum of healthly BALB/c nude mice (~8 weeks old, 18 g) were collected after treatment with PBS and Gi-F-CAA (8, 12 and 16 mg/kg in 100 μL PBS) for 1 days. The blood biochemistry analysis was performed with Hitachi Automatic Biochemical Analyzer 7100. The blood routine analysis was carried out by Vital River Laboratory Animal Technology Co., Ltd. (Beijing, China).
# [1] = healthy mice, i.v. 8, 12 and 16 mg/kg, 1 day post-injection
structure (smiles),measurement,setting,value
CC(C)C[C@H](NC(=O)c1ccc(-c2c3nc(c(-c4ccc(C(=O)O)cc4)c4ccc([nH]4)c(-c4ccc(C(=O)O)cc4)c4nc(c(-c5ccc(C(=O)O)cc5)c5ccc2[nH]5)C=C4)C=C3)cc1)C(=O)N[C@@H](CCCCNC(=O)/C=C(/CC(=O)O)C(=O)O)C(=O)N[C@@H](CC(C)C)C(=O)N[C@@H](CCCCN)C(=O)N[C@@H](CC(C)C)C(=O)N[C@@H](CCCCNC(=O)/C=C(/CC(=O)O)C(=O)O)C(=O)NCC(=O)N[C@@H](C)C(=O)N[C@H]1CSSC[C@@H](C(=O)N2CCC[C@H]2C(=O)N[C@H](C(=O)O)C(C)C)NC(=O)[C@@H]2CCCN2C(=O)[C@H](Cc2ccc(O)cc2)NC(=O)[C@H](CC(C)C)NC(=O)[C@@H]2CCCN2C(=O)[C@H](CC(C)C)NC(=O)[C@H](Cc2c[nH]c3ccccc23)NC(=O)[C@H](CC(N)=O)NC1=O [Gi-F-CAA] (X1-LK(X2)LKLK(X2)GACNWLPLYPCPV-OH; disulfide 9-17; C-terminus assumed),ALP,"8 mg/kg, mice 1",152 U/L
same,ALT,"8 mg/kg, mice 1",62 U/L
same,AST,"8 mg/kg, mice 1",183 U/L
same,BUN,"8 mg/kg, mice 1",13.2 mmol/L
same,CREA,"8 mg/kg, mice 1",30.8 µmol/L
same,HGB,"8 mg/kg, mice 1",15.7 g/dL
same,NEUT,"8 mg/kg, mice 1",0.4 109/L
same,PLT,"8 mg/kg, mice 1",985 109/L
same,RBC,"8 mg/kg, mice 1",10.6 1012/L
same,WBC,"8 mg/kg, mice 1",1.8 109/L
same,ALP,"8 mg/kg, mice 2",159 U/L
same,ALT,"8 mg/kg, mice 2",60 U/L
same,AST,"8 mg/kg, mice 2",184 U/L
same,BUN,"8 mg/kg, mice 2",14.42 mmol/L
same,CREA,"8 mg/kg, mice 2",28.8 µmol/L
same,HGB,"8 mg/kg, mice 2",15.4 g/dL
same,NEUT,"8 mg/kg, mice 2",0.3 109/L
same,PLT,"8 mg/kg, mice 2",1198 109/L
same,RBC,"8 mg/kg, mice 2",10.1 1012/L
same,WBC,"8 mg/kg, mice 2",1.5 109/L
same,ALP,"8 mg/kg, mice 3",145 U/L
same,ALT,"8 mg/kg, mice 3",56 U/L
same,AST,"8 mg/kg, mice 3",193 U/L
same,BUN,"8 mg/kg, mice 3",13.94 mmol/L
same,CREA,"8 mg/kg, mice 3",31.6 µmol/L
same,HGB,"8 mg/kg, mice 3",15.9 g/dL
same,NEUT,"8 mg/kg, mice 3",0.3 109/L
same,PLT,"8 mg/kg, mice 3",1073 109/L
same,RBC,"8 mg/kg, mice 3",9 1012/L
same,WBC,"8 mg/kg, mice 3",1.7 109/L
same,ALP,"8 mg/kg, mice 4",159 U/L
same,ALT,"8 mg/kg, mice 4",63 U/L
same,AST,"8 mg/kg, mice 4",180 U/L
same,BUN,"8 mg/kg, mice 4",13.15 mmol/L
same,CREA,"8 mg/kg, mice 4",31 µmol/L
same,HGB,"8 mg/kg, mice 4",15.3 g/dL
same,NEUT,"8 mg/kg, mice 4",0.4 109/L
same,PLT,"8 mg/kg, mice 4",1117 109/L
same,RBC,"8 mg/kg, mice 4",10 1012/L
same,WBC,"8 mg/kg, mice 4",2 109/L
same,ALP,"12 mg/kg, mice 1",150 U/L
same,ALT,"12 mg/kg, mice 1",61 U/L
same,AST,"12 mg/kg, mice 1",192 U/L
same,BUN,"12 mg/kg, mice 1",13.27 mmol/L
same,CREA,"12 mg/kg, mice 1",30 µmol/L
same,HGB,"12 mg/kg, mice 1",15.2 g/dL
same,NEUT,"12 mg/kg, mice 1",0.4 109/L
same,PLT,"12 mg/kg, mice 1",991 109/L
same,RBC,"12 mg/kg, mice 1",9 1012/L
same,WBC,"12 mg/kg, mice 1",1.9 109/L
same,ALP,"12 mg/kg, mice 2",145 U/L
same,ALT,"12 mg/kg, mice 2",63 U/L
same,AST,"12 mg/kg, mice 2",191 U/L
same,BUN,"12 mg/kg, mice 2",13.11 mmol/L
same,CREA,"12 mg/kg, mice 2",28.5 µmol/L
same,HGB,"12 mg/kg, mice 2",15.4 g/dL
same,NEUT,"12 mg/kg, mice 2",0.3 109/L
same,PLT,"12 mg/kg, mice 2",1110 109/L
same,RBC,"12 mg/kg, mice 2",9.3 1012/L
same,WBC,"12 mg/kg, mice 2",1.6 109/L
same,ALP,"12 mg/kg, mice 3",153 U/L
same,ALT,"12 mg/kg, mice 3",60 U/L
same,AST,"12 mg/kg, mice 3",190 U/L
same,BUN,"12 mg/kg, mice 3",12.9 mmol/L
same,CREA,"12 mg/kg, mice 3",30.6 µmol/L
same,HGB,"12 mg/kg, mice 3",15.6 g/dL
same,NEUT,"12 mg/kg, mice 3",0.3 109/L
same,PLT,"12 mg/kg, mice 3",1144 109/L
same,RBC,"12 mg/kg, mice 3",10 1012/L
same,WBC,"12 mg/kg, mice 3",1.9 109/L
same,ALP,"12 mg/kg, mice 4",146 U/L
same,ALT,"12 mg/kg, mice 4",60 U/L
same,AST,"12 mg/kg, mice 4",190 U/L
same,BUN,"12 mg/kg, mice 4",13.29 mmol/L
same,CREA,"12 mg/kg, mice 4",29.9 µmol/L
same,HGB,"12 mg/kg, mice 4",16.4 g/dL
same,NEUT,"12 mg/kg, mice 4",0.3 109/L
same,PLT,"12 mg/kg, mice 4",1087 109/L
same,RBC,"12 mg/kg, mice 4",10.1 1012/L
same,WBC,"12 mg/kg, mice 4",2.1 109/L
same,ALP,"16 mg/kg, mice 1",150 U/L
same,ALT,"16 mg/kg, mice 1",57 U/L
same,AST,"16 mg/kg, mice 1",182 U/L
same,BUN,"16 mg/kg, mice 1",14.18 mmol/L
same,CREA,"16 mg/kg, mice 1",31.7 µmol/L
same,HGB,"16 mg/kg, mice 1",15.7 g/dL
same,NEUT,"16 mg/kg, mice 1",0.4 109/L
same,PLT,"16 mg/kg, mice 1",1194 109/L
same,RBC,"16 mg/kg, mice 1",9.6 1012/L
same,WBC,"16 mg/kg, mice 1",2 109/L
same,ALP,"16 mg/kg, mice 2",145 U/L
same,ALT,"16 mg/kg, mice 2",56 U/L
same,AST,"16 mg/kg, mice 2",188 U/L
same,BUN,"16 mg/kg, mice 2",13.21 mmol/L
same,CREA,"16 mg/kg, mice 2",29.4 µmol/L
same,HGB,"16 mg/kg, mice 2",15.3 g/dL
same,NEUT,"16 mg/kg, mice 2",0.3 109/L
same,PLT,"16 mg/kg, mice 2",984 109/L
same,RBC,"16 mg/kg, mice 2",10.5 1012/L
same,WBC,"16 mg/kg, mice 2",1.5 109/L
same,ALP,"16 mg/kg, mice 3",148 U/L
same,ALT,"16 mg/kg, mice 3",64 U/L
same,AST,"16 mg/kg, mice 3",180 U/L
same,BUN,"16 mg/kg, mice 3",12.87 mmol/L
same,CREA,"16 mg/kg, mice 3",28.9 µmol/L
same,HGB,"16 mg/kg, mice 3",15.1 g/dL
same,NEUT,"16 mg/kg, mice 3",0.3 109/L
same,PLT,"16 mg/kg, mice 3",1087 109/L
same,RBC,"16 mg/kg, mice 3",10.6 1012/L
same,WBC,"16 mg/kg, mice 3",1.9 109/L
same,ALP,"16 mg/kg, mice 4",146 U/L
same,ALT,"16 mg/kg, mice 4",59 U/L
same,AST,"16 mg/kg, mice 4",193 U/L
same,BUN,"16 mg/kg, mice 4",12.98 mmol/L
same,CREA,"16 mg/kg, mice 4",32.5 µmol/L
same,HGB,"16 mg/kg, mice 4",15 g/dL
same,NEUT,"16 mg/kg, mice 4",0.4 109/L
same,PLT,"16 mg/kg, mice 4",1072 109/L
same,RBC,"16 mg/kg, mice 4",9.8 1012/L
same,WBC,"16 mg/kg, mice 4",1.9 109/L
same,"blood routine examination (WBC, RBC, PLT, LYMPH, NEUT)","healthy mice, i.v. 8, 12 and 16 mg/kg, 1 day",comparable with that of PBS group
same,"hepatic and renal function markers (ALT, AST, ALP, BUN, CRE)",[1],normal ranges of values
same,histopathology (H&E) of major organs,[1],no remarkable histopathological damages

# From article PMC10784468 (Nature Communications, 2024)
